Data taken from patent US20250213684A1 (Novartis, published 2025).
Each block holds one binder with its values, some of them ahead of it.

Key:
[1] = target: T1, cynomolgus TIM-3 expressed on transfected cells (cynomolgus monkey, UniProt A0A2K5U3G7 22-294); experiment: flow cytometry (Median FI-FITC), CynoTim-3-300.19 cells
T1 construct: whole, on cells; also called cynoTIM-3; cynomolgus monkey TIM-3
T1 sequence: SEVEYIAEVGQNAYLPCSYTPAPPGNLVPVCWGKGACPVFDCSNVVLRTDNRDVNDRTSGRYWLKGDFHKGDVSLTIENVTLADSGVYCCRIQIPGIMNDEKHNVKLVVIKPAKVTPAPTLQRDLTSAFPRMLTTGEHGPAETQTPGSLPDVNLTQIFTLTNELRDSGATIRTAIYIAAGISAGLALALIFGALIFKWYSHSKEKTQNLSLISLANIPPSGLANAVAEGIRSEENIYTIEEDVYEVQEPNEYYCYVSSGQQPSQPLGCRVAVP

[2] = target: T2, TIM-3 (antigen; species and construct not stated for the assay) (UniProt Q8TDQ0 22-202, limits assumed); experiment: FACS competition binding against the parent murine ABTIM3; cells not named on the sheet
[3] = target: T3, human TIM-3 expressed on cells (human, UniProt Q8TDQ0 22-301); experiment: flow cytometry, 300.19 huTIM3 cells, detected by secondary Ab-FITC
T3 construct: also called huTIM-3; hTIM-3

[4] = target: T4, human TIM-4 expressed in CHO cells (human, UniProt Q96H15 25-378); experiment: flow cytometry on CHO cells expressing human TIM-4
T4 construct: whole, on cells
T4 sequence (looked up): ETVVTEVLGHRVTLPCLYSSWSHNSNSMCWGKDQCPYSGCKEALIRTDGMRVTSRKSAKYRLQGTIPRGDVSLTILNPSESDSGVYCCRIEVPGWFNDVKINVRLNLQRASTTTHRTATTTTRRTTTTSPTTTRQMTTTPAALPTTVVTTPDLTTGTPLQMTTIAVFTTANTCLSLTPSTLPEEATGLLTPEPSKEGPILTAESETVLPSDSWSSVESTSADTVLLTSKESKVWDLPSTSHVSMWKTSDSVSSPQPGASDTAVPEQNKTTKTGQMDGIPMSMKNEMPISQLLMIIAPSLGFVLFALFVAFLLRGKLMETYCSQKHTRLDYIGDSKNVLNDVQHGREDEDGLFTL

[5] = target: T5, murine TIM-3 expressed in cells (murine, UniProt Q8VIM0 20-281); experiment: flow cytometry on cells expressing murine TIM-3
T5 construct: whole, on cells; also called mouse TIM-3

[6] = target: T3, human TIM-3 expressed on cells; experiment: flow cytometry on activated human PBMCs, CD8 gated
[7] = target: T3, human TIM-3 expressed on cells; experiment: flow cytometry competition on 300.19 hTIM3 cells in presence of ABTIM3; signal is MFI of 0.51ug/ml 22C1-PE
[8] = target: T3, human TIM-3 expressed on cells; experiment: flow cytometry on cells expressing human TIM-3
[9] = target: T3, human TIM-3 expressed on cells; experiment: flow cytometry on activated human PBMCs, CD4 gated
huTIM-3/his [10] = target: T6, huTIM-3/his (human, UniProt Q8TDQ0 22-202); experiment: SPR (Biacore), mean KD
T6 construct: also called hTIM-3/his antigen

cynoTIM-3/Fc [11] = target: T7, cynoTIM-3/Fc (cynomolgus monkey, UniProt A0A2K5U3G7 22-195); experiment: SPR (Biacore), mean KD
T7 sequence: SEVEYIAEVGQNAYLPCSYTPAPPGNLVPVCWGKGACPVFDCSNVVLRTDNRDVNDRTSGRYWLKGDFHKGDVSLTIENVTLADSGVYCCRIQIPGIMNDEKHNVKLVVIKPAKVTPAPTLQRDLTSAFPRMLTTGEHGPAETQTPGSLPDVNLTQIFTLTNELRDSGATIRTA

huTIM-3/his [12] = target: T6, huTIM-3/his; experiment: Biacore, 2nd antibody injection; 1st antibody (competitor) ABTIM3-hum03
[13] = target: T3, human TIM-3 expressed on cells; experiment: flow cytometry competition on 300.19 hTIM-3 cells against PE-labelled ABTIM3-hum21
ratTIM-3/Fc = target: T8, ratTIM-3/Fc (rat, UniProt P0C0K5 22-194, limits assumed); experiment: SPR (Biacore), run 3
T8 construct: also called rat TIM-3/Fc protein
T8 sequence (looked up): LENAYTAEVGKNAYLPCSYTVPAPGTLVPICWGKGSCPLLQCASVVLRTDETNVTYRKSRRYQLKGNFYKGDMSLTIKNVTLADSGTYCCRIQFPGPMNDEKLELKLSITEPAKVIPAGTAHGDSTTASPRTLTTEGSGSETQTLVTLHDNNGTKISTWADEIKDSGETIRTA

huTIM-3/his [14] = target: T6, huTIM-3/his; experiment: SPR (Biacore), run 3
cynoTIM-3/Fc [15] = target: T7, cynoTIM-3/Fc; experiment: SPR (Biacore), run 3
huTIM-3/his [16] = target: T6, huTIM-3/his; experiment: Biacore, 2nd antibody injection; 1st antibody (competitor) ABTIM3-hum21
huTIM-3/his [17] = target: T6, huTIM-3/his; experiment: SPR (Biacore), run 2
cynoTIM-3/Fc [18] = target: T7, cynoTIM-3/Fc; experiment: SPR (Biacore), run 2
huTIM-3/his [19] = target: T6, huTIM-3/his; experiment: Biacore, 2nd antibody injection; 1st antibody (competitor) huIgG1
[20] = target: T2, TIM-3 (antigen; species and construct …); experiment: SPR (Biacore), run of May 30, 2014
huTIM-3/his [21] = target: T6, huTIM-3/his; experiment: SPR (Biacore), run 1
cynoTIM-3/Fc [22] = target: T7, cynoTIM-3/Fc; experiment: SPR (Biacore), run 1

T5 sequence (Q8VIM0 20-281): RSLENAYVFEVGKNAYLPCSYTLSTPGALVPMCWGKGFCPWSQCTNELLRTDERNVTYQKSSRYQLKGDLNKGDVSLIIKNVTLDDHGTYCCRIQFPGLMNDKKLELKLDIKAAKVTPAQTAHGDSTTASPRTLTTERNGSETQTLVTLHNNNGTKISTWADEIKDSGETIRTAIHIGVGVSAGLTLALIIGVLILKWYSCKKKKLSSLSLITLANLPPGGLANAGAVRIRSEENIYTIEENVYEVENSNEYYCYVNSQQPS

- EC50 (read off the curve) [1]: ~0.3 mg/L
- IC50 (read off the curve) [2]: ~0.2 mg/L
- EC50 (read off the curve) [3]: ~0.1 mg/L
- binding result [4]: no binding
- binding result [5]: no binding
- Kd [6]: 0.3 nM
- IC50 (read off the curve) [7]: ~0.2 mg/L
- Kd [8]: 1.04 nM
- Kd [9]: 0.29 nM
B1: ABTIM3 (antibody, V domains shown)
VH: QVQLQQPGAELVKPGASVKMSCKASGYTFTSYNMHWIKQTPGQGLEWIGDIYPGNGDTSYNQKFKGKATLTADKSSSTVYMQLSSLTSEDSAVYYCARVGGAFPMDYWGQGTSVTVSS
VL: DIVLTQSPASLAVSLGQRATISCRASESVEYYGTSLMQWYQQKPGQPPKLLIYAASNVESGVPARFSGSGSGTDFSLNIHPVEEDDIAIYFCQQSRKDPSTFGGGTKLEIK
notes: Murine monoclonal antibody; also called murine anti-TIM-3 antibody ABTIM3; parent murine anti-TIM-3 antibody

- Kd (huTIM-3/his [10]): 0.163 nM
- Kd (cynoTIM-3/Fc [11]): 3.14 nM
- change in RU (huTIM-3/his [12]): 8.5 RU
- IC50 (read off the curve) [13]: ~0.4 mg/L
- EC50 (read off the curve) [3]: ~0.1 mg/L
- Kd (ratTIM-3/Fc): 297 nM
- Kd (huTIM-3/his [14]): 0.109 nM
- Kd (cynoTIM-3/Fc [15]): 5.04 nM
- change in RU (huTIM-3/his [16]): 8.1 RU
- IC50 (read off the curve) [7]: ~0.2 mg/L
- Kd (huTIM-3/his [17]): 0.226 nM
- Kd (cynoTIM-3/Fc [18]): 3.14 nM
- change in RU (huTIM-3/his [19]): 83.2 RU
- Kd [8]: 0.906 nM
- Kd [20]: 0.194 nM
- Kd (huTIM-3/his [21]): 0.155 nM
- Kd (cynoTIM-3/Fc [22]): 1.24 nM
B2: ABTIM3-hum11 (antibody, human IgG4 S228P, kappa, V domains shown)
VH: QVQLVQSGAEVKKPGSSVKVSCKASGYTFTSYNMHWVRQAPGQGLEWMGDIYPGNGDTSYNQKFKGRVTITADKSTSTVYMELSSLRSEDTAVYYCARVGGAFPMDYWGQGTTVTVSS
VL: AIQLTQSPSSLSASVGDRVTITCRASESVEYYGTSLMQWYQQKPGKAPKLLIYAASNVESGVPSRFSGSGSGTDFTLTISSLQPEDFATYFCQQSRKDPSTFGGGTKVEIKR
notes: Humanized; Immobilized on Protein G beads and cross-linked with DSS in the HDx-MS experiment
